According to patent publication US20240368668A1, “SUBSTRATES AND BIOMARKERS OF ADAMTS7” (The Broad Institute, Inc., priority 2021, published 2024):

Molecular target: T1, mouse ADAMTS7 (Mus musculus, UniProt Q68SA9, E373Q)
T1 construct: Full-length mouse Adamts7 1-1857 (Uniprot Q68SA9, WT or E373Q catalytic mutant); expressed in transfected cells; host or cells: Human Coronary Artery Smooth Muscle Cells (HCA-SMC, Lonza), adenovirus 50 MOI
T1 sequence (Q68SA9 221-1657 E373Q): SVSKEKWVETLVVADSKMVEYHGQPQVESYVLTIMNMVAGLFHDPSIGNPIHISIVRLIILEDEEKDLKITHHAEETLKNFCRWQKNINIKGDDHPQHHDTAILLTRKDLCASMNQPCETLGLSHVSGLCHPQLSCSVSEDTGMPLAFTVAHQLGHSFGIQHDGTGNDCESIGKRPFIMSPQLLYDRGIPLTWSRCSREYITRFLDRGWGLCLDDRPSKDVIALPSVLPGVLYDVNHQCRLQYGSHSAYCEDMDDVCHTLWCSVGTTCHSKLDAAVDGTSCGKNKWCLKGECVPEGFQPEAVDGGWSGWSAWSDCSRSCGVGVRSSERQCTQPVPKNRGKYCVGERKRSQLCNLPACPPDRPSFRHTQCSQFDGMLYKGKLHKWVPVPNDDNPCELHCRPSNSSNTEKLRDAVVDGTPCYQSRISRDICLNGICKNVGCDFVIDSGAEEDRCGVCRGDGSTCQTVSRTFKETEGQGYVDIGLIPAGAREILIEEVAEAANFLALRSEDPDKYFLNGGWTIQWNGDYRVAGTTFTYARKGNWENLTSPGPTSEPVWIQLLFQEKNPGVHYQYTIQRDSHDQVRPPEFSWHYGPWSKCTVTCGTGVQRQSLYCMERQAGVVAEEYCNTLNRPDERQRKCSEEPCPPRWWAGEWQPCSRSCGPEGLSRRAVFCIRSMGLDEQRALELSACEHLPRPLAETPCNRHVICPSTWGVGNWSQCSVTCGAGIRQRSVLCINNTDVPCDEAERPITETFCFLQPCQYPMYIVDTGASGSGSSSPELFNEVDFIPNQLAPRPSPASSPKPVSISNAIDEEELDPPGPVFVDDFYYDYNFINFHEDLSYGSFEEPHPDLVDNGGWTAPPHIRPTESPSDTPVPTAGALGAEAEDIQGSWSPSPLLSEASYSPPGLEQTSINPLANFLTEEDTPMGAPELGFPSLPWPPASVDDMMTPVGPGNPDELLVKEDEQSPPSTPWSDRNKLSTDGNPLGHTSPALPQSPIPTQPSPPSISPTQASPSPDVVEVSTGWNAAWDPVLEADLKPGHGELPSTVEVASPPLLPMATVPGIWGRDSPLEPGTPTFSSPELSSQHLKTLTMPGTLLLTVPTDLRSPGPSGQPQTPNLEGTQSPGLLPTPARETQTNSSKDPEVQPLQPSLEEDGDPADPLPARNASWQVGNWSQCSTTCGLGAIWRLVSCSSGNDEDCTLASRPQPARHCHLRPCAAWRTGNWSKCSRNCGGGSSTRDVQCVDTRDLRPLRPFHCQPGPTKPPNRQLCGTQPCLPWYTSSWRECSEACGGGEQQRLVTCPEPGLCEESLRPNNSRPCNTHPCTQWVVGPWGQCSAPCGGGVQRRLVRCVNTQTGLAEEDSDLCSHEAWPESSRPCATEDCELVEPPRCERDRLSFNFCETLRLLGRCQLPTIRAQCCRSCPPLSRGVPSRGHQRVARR
Assay: TMT10 TAILS N-terminomics, HUVEC experiment (process replicates, trypsin/AspN digest)
Type: cell-based, human
Settings: HUVEC TAILS HC; log fold change of N-terminal peptide, Ad-mADAMTS7 EQ over Luc
Outline: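 Full-length mouse ADAMTS7 (WT or E373Q mutant, C-terminal 3xFLAG) or luciferase was transduced via adenovirus, 50 MOI, into HCA-SMC (SMC1, SMC2) or HUVEC. SMC1: pooled media, technical triplicates 400 ug; SMC2: process triplicates 300 ug; HUVEC: process triplicates 200 ug, bFGF2 10 ng/ml.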

| logFC.mEQ.over.Luc | Substance |
| --- | --- |
| 0.64 | THBS2_290 (LSENLKR; listed as Homo sapiens) |
| 0.36 | MAP4_815 (AVASTGPSSR; listed as Homo sapiens) |
| −0.22 | NUCB1_389 (LQQAVLHMEQR; listed as Homo sapiens) |
| −0.17 | SPOCK1_27 (LAGGAGPNHGNFL; listed as Homo sapiens) |
| −0.10 | NID2_291 (HSSVPLGR; listed as Homo sapiens) |
| −0.38 | LTBP2_79 (VAGLQPVER; listed as Homo sapiens) |
| 0.12 | LTBP2_250 (SAAGEGTLAR; listed as Homo sapiens) |
| 0.08 | MAP4_816 (VASTGPSSR; listed as Homo sapiens) |
| −0.20 | SERBP1_56 (QAAAQTNSNAAGKQLR; listed as Homo sapiens) |
| −0.60 | LTBP3_208 (FLVPLGPGQISA; listed as Homo sapiens) |
| −0.22 | LTBP2_502 (LVENSVETRPPPWLPASPGHSLW; listed as Homo sapiens) |
| −0.13 | SRGN_59 (LLPGESNKIPR; listed as Homo sapiens) |
| 0.06 | NUCB1_317 (FLASTQR; listed as Homo sapiens) |
| −0.84 | COL18A1_1505 (LQPPVVQLHDSNPYPR; listed as Homo sapiens) |
| −0.30 | NID1_360 (FHQQHPQVI; listed as Homo sapiens) |
